Target: BrxU, untagged (GmrSD-family Type IV restriction enzyme from Escherichia fergusonii) (Escherichia fergusonii)

Work on “IPI* (mature, active form of phage T4 internal protein I, product of ip1) (natural protein)” yielded an in vitro digestion of glc-5mdC pUC19 DNA by untagged BrxU (1 mM ATP) after incubation with a titration of IPI*; excess of IPI* sufficient for robust inhibition of 30 fold excess.

— article PMC12409352
